How the values were obtained:
[1] = biological target: 全长1968HongKong H3N2 HA (义翘神州 Cat:VG40116-NH, N端His标签, 293T表达) (Influenza A virus …, UniProt Q91MA7 17-566); assay: Western blot of full-length HA expressed in 293T cells
[2] = biological target: A/HongKong/01/1968(H3N2)HA蛋白 (Influenza A virus …, UniProt Q91MA7 17-530); assay: ELISA, native HA coated at 1 ug/ml, antibody 5 ug/ml
Sequence of A/HongKong/01/1968(H3N2)HA蛋白 (Q91MA7 17-530 limits assumed): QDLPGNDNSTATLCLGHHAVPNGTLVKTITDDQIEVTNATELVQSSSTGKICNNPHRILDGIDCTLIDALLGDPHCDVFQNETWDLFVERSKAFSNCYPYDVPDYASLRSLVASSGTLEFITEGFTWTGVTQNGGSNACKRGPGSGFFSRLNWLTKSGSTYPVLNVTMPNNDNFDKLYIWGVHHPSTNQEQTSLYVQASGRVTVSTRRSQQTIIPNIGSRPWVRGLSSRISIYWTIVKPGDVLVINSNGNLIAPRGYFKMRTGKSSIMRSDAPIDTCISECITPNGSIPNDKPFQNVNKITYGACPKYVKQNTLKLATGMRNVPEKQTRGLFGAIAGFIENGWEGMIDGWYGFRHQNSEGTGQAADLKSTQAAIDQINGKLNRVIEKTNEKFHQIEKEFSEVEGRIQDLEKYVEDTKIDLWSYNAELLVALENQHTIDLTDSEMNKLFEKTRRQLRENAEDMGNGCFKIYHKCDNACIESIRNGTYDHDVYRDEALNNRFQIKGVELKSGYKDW

Sequence of 全长1968HongKong H3N2 HA (义翘神州 Cat:VG40116-NH, N端His标签, 293T表达) (Q91MA7 17-566 limits assumed): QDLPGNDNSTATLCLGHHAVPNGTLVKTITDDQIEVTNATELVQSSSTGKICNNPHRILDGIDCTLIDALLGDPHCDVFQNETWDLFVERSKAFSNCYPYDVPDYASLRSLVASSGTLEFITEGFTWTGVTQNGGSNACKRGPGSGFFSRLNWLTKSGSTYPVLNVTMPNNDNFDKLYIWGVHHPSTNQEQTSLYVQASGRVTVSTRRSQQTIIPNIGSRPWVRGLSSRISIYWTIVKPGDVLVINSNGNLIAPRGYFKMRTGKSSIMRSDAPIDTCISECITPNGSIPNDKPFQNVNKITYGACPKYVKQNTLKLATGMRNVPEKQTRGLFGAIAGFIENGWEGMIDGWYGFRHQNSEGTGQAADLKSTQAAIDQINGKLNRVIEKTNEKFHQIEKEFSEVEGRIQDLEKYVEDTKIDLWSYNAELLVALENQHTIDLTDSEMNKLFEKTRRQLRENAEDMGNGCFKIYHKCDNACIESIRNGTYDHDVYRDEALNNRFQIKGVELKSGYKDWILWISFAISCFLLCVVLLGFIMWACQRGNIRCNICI

B1: 12mAb (antibody, V domains shown)
VH: EVQLVESGGGLVQPGGSLRLSCAASGFTFSTYNMNWVRQAPGKGLEWLSYISTSSNTIYYADSVKGRFTISRDNAKNSLFLQMNSLRDEDTAVYYCARDRGCSSTNCYVVGYYFYGMDVWGQGTTVTVSS
VL: DIQMTQSPSSVSASVGDRVTITCRASQGISSYLAWYQLKPGRAPKLLIYGATRLQSGVPSRFSGSGSGTDFTLTISGLQPEDFATYHCQQADSFPLTFGQGTRLEIK
[1]
  binding result: binds
[2]
  binding result: binds
